Results: patent US20210032305A1 (KINDRED BIOSCIENCES, published 2021)

Key:
[1] = molecular target: T1, Feline EPOR201_ECD_human Fc (feline EPOR fused to human Fc, biotinylated with EZ-Link NHS-LC-biotin); assay: biolayer interferometry (ForteBio); biotinylated receptor-Fc on streptavidin tips, EPO analog 150-1.9 nM, 1:1 fit
T1 construct: also called fEPOR201_ECD-Fc; feline EPOR201-ECD-Fc
Procedure: (§1) The binding analysis was performed as follows. Briefly, fEPOR201_ECD-Fc and fEPOR202_ECD-Fc were biotinylated using EZ-Link NHS-LC-biotin (Catalog No. 21336, Thermo Scientific). The free unreacted biotin was removed by dialysis. Biotinylated fEPOR201_ECD-Fc and fEPOR202_ECD-Fc were captured on streptavidin sensor tips (Catalog No. 18-509, ForteBio).
(§2) Dissociation was monitored for 600 seconds. A buffer only blank curve was subtracted to correct for any drift. The data were fit to a 1:1 binding model using ForteBio™ data analysis software to determine the kₒₙ (association rate constant), koff (dissociation rate constant) and the Kd (dissociation constant). […] The buffer for dilutions and all binding steps was: 200 mM phosphate, 150 mM NaCl, 0.02% Tween-20, 0.05% sodium azide, and 0.1 mg BSA, pH7.4.

[2] = molecular target: T2, Feline EPOR202_ECD_human Fc (feline EPOR fused to human Fc, biotinylated with EZ-Link NHS-LC-biotin); assay: as above
T2 construct: also called fEPOR202_ECD-Fc; feline EPOR202-ECD-Fc
T2 sequence (chain, as listed by the source limits assumed): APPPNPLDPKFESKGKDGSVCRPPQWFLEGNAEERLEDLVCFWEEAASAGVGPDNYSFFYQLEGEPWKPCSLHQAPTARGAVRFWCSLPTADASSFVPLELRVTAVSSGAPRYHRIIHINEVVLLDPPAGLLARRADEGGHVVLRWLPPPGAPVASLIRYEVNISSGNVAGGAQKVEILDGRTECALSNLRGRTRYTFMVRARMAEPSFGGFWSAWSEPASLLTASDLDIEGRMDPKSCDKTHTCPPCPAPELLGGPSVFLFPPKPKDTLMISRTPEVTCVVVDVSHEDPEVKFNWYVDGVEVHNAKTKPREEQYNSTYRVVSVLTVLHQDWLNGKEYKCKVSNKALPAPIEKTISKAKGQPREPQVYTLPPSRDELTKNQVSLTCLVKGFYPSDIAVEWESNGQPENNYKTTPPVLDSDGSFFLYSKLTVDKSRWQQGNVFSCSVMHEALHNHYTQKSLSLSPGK
Procedure: as §1, §2

[3] = molecular target: T3, human EPOR-Fc (Catalog No. 963-ER-050, R&D Systems) (human, UniProt P19235 25-250, biotinylated in Example 10 only); assay: biolayer interferometry (ForteBio); biotinylated human EPOR on streptavidin tips, EPO analog 20-0.25 nM, 1:1 fit
T3 construct: extracellular domain; treated as one molecule; also called extracellular domain of human EPOR; human EPO receptor; not shown: Fc part of the bought EPOR-Fc
T3 sequence (looked up): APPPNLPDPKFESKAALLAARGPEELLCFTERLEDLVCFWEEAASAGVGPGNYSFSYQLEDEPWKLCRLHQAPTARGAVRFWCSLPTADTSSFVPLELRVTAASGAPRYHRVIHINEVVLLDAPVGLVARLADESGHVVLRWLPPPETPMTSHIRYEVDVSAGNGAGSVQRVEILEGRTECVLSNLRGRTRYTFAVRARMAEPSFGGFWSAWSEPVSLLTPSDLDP
Excerpt: Dissociation was monitored for 600 seconds. A buffer only blank curve was subtracted to correct for any drift.

human EPOR on TF-1 cells = molecular target: T4, human EPOR on TF-1 cells (human, UniProt P19235 25-508); assay: cell-based or functional assay
T4 sequence (looked up): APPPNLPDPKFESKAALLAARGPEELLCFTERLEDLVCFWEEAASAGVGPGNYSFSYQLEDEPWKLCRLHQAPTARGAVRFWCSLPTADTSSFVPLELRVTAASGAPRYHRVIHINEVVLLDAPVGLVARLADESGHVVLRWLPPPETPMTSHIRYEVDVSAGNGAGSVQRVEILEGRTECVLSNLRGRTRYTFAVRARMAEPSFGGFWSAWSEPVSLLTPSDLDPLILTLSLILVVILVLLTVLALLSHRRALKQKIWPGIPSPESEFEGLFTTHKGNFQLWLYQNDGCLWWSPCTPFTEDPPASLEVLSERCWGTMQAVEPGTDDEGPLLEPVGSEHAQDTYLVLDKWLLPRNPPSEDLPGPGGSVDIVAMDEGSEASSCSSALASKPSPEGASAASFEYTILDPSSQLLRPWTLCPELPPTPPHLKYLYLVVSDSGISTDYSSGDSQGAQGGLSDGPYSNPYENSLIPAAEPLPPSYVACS

[4] = molecular target: T5, Feline EPOR203_39A_ECD_Fc (feline EPOR fused to human Fc); assay: sandwich ELISA: plate coated with anti-human EPO antibody, Analog 6-30 EV Mature captured in 2-fold dilutions from 500 ng/mL, feline EPOR203_39A_ECD_Fc added at 200 ng/mL, detected with anti-human Fc HRP; 4-parameter fit. The axis 'Conc' prints no unit; ng/mL is from paragraph 333
T5 construct: also called feline EPOR203-ECD-Fc; fEPOR203_ECD-Fc
T5 sequence (chain, as listed by the source limits assumed): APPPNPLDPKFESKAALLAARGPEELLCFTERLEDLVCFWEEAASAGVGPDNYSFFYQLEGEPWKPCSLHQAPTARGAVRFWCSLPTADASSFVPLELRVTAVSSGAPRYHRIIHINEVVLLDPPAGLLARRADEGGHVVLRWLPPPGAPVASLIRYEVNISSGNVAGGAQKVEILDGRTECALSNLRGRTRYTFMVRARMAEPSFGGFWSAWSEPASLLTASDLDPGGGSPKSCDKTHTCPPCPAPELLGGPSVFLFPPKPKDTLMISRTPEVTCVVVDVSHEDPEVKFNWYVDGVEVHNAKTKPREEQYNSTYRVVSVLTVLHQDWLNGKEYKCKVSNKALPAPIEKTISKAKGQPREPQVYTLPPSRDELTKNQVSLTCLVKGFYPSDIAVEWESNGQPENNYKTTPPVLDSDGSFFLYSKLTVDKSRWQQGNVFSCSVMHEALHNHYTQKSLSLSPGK
Procedure: Feline EPOR203_39A_ECD_Fc (200 ng/mL in 1% BSA-PBST buffer) was added to each well and binding allowed to proceed for 1 hour at room temperature. A rabbit anti-human Fc antibody and horseradish peroxidase (HRP) conjugate (0.2 μg/mL) was used for detection and left in the wells for 1 hour at room temperature. 3,3,5,5′-Tetramethylbenzidine (TMB) was applied to the wells as the HRP substrate and kept in the well for 5 to 7 minutes for signal development.

[5] = molecular target: T3, human EPOR-Fc (Catalog No. 963-ER-050, …); assay: ELISA 2: as ELISA 1, EPO sample treated with neuraminidase first
Procedure: (§3) A 96-well plate was coated with a mouse anti-EPO specific antibody (Catalog No. MAB287, clone 9C21D11, R&D Systems) to capture the EPO polypeptides. The EPO-bound wells were incubated with human EPOR-Fc at a concentration of 200 ng/mL and the bound EPOR was detected by anti-human Fc HRP conjugated antibody. The ELISA was performed a second time, but the three samples of EPO polypeptides were first treated with neuraminidase to remove the sialic acid.

[6] = molecular target: T3, human EPOR-Fc (Catalog No. 963-ER-050, …); assay: ELISA 1: EPO analog captured by mouse anti-EPO antibody (MAB287), human EPOR-Fc at 200 ng/mL, anti-human Fc HRP
Procedure: as §3

T1 sequence (chain, as listed by the source limits assumed): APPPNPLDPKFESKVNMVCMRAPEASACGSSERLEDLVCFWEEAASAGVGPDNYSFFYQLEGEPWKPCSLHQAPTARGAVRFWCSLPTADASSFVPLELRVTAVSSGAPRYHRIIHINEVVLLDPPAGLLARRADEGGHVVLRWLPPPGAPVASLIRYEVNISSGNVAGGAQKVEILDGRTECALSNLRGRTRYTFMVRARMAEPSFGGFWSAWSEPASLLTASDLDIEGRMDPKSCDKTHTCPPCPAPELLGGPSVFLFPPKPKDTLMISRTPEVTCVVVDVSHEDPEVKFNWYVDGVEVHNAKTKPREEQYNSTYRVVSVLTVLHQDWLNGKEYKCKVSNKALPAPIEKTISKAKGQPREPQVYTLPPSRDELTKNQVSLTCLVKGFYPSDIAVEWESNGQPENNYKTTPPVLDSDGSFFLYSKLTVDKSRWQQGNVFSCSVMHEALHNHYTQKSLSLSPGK

Binder	EC50, TF-1 cell proliferation (MTT) (human EPOR on TF-1 cells)	EC50 [5] [µg/mL]	EC50 [6] [µg/mL]	other results
Feline EPO Analog 6-30 G18V87 mature form (Analog 6-30 GV Mature) (ligand, N-linked glycosylated and sialylated (CHO DG-44 expressed); fraction not specified in this assay, also called feline EPO Analog 6-30 GV Mature) APPRLICDSRVLERYILGAREAENVTMGCNETCSFSENITVPDTKVNFYTWKRMDVGQQAVEVWQGLALLSEAILRGQALLANSSQVNETLQLHVDKAVSSLRSLTSLLRALGAQKEATSLPEATSAAPLRTFTVDTLCKLFRIYSNFLRGKLTLYTGEACRRGDR	0.3 IU/mL	–	–	Kd [1]: 0.4 nM; Kd [2]: 0.17 nM; Kd [3]: 0.0976 nM
Feline EPO Analog 6-30 E18V87 mature form (Analog 6-30 EV Mature) (ligand, N-linked glycosylated and sialylated (CHO DG-44 expressed); fraction not specified in this assay, also called Feline Analog 6-30 EV Mature; Sample 1) APPRLICDSRVLERYILEAREAENVTMGCNETCSFSENITVPDTKVNFYTWKRMDVGQQAVEVWQGLALLSEAILRGQALLANSSQVNETLQLHVDKAVSSLRSLTSLLRALGAQKEATSLPEATSAAPLRTFTVDTLCKLFRIYSNFLRGKLTLYTGEACRRGDR	0.00478 µg/mL	–	–	EC50 [4]: 0.088 µg/mL
Analog 6-30 GV Mature (acidic fraction) (ligand, N-linked glycosylated; high sialylation, isoelectric point range of about 2 to about 3.5, Same polypeptide as m1; glycoform fraction; In ELISA 2 it was treated with neuraminidase first; also called acidic (high sialylation) fraction of Analog 6-30 GV Mature) APPRLICDSRVLERYILGAREAENVTMGCNETCSFSENITVPDTKVNFYTWKRMDVGQQAVEVWQGLALLSEAILRGQALLANSSQVNETLQLHVDKAVSSLRSLTSLLRALGAQKEATSLPEATSAAPLRTFTVDTLCKLFRIYSNFLRGKLTLYTGEACRRGDR	–	0.018	0.1	–
Analog 6-30 GV Mature (basic fraction) (ligand, N-linked glycosylated; low sialylation, isoelectric point range of about 4 to about 5 (Example 15), about 3.5 to about 5 (Example 6), Same polypeptide as m1; glycoform fraction; In ELISA 2 it was treated with neuraminidase first; also called basic (low sialylation) fraction of Analog 6-30 GV Mature) APPRLICDSRVLERYILGAREAENVTMGCNETCSFSENITVPDTKVNFYTWKRMDVGQQAVEVWQGLALLSEAILRGQALLANSSQVNETLQLHVDKAVSSLRSLTSLLRALGAQKEATSLPEATSAAPLRTFTVDTLCKLFRIYSNFLRGKLTLYTGEACRRGDR	–	0.031	0.035	–
Analog 6-30 EV Mature (acidic fraction) (ligand, N-linked glycosylated; high sialylation (acidic fraction), Same polypeptide as m4; glycoform fraction; In ELISA 2 it was treated with neuraminidase first; also called acidic (high sialylation) fraction of Analog 6-30 EV Mature) APPRLICDSRVLERYILEAREAENVTMGCNETCSFSENITVPDTKVNFYTWKRMDVGQQAVEVWQGLALLSEAILRGQALLANSSQVNETLQLHVDKAVSSLRSLTSLLRALGAQKEATSLPEATSAAPLRTFTVDTLCKLFRIYSNFLRGKLTLYTGEACRRGDR	–	0.02	0.045	–
